Experiments:
Transglutaminase 2 (TG2) = molecular target: T1, Transglutaminase 2 (TG2) (Homo sapiens, UniProt P21980); assay: biochemical; set-up: inhibition of TG2 protein crosslinking activity, gel-based read-out
T1 construct: gene TGM2; N-terminal six-histidine tagged human TG2
T1 sequence (P21980 1-687): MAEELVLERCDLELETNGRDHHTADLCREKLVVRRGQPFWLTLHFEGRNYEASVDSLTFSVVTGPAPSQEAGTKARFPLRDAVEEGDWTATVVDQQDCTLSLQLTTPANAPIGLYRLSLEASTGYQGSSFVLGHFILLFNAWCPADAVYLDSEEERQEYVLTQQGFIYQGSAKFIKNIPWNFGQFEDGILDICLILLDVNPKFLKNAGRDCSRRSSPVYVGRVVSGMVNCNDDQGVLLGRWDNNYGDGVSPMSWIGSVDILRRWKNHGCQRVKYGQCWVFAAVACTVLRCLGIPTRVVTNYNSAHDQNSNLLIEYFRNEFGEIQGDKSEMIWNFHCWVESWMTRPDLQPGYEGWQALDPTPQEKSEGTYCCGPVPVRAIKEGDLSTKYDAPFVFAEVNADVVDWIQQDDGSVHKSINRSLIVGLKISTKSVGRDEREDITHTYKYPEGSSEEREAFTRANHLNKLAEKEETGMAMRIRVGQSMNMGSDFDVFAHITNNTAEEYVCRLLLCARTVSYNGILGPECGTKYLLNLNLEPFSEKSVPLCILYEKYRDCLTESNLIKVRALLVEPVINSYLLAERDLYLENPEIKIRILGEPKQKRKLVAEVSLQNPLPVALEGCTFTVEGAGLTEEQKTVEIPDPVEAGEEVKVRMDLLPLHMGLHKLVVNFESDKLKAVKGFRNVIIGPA
Description: (the LM-series, Fig. S6).

[1] = molecular target: Transglutaminase 2 (TG2), wildtype, recombinant human (human) (UniProt P21980); assay: SAXS; static SAXS, 25 µM (2 mg/mL) TG2 with 2 mM Ca2+ for 5 min, TG2 Storage Buffer; DAMMIF envelopes (P1, P2), CRYSOL fit to the open state dimer; deconvolution into monomer and dimer
[2] = molecular target: Transglutaminase 2 (TG2), wildtype, recombinant human (human) (UniProt P21980); assay: SAXS; time-resolved SAXS, Kenics chaotic advection mixer, TG2 1 mg/mL final, 2 mM Ca2+, 0-631 ms; deconvolution into closed state monomer and open state dimer
[3] = molecular target: the molecule itself; assay: SAXS; static SAXS, TG2 R580K with GTP at concentrations greater than 1 mM (up to 5 mM); CRYSOL fit to the open state dimer (from crystal packing of PDB 2Q3Z)

O=C1NC(=O)N(c2cccc(Cl)c2)C(=O)/C1=C/Nc1ccc(Cl)c(CN2C(=O)c3ccccc3C2=O)c1 [LM11]
IC50 (Transglutaminase 2 (TG2)): 10 µM

Transglutaminase 2 (TG2), wildtype, recombinant human (from UniProt P21980 1-687) (enzyme)
percent dimer after five minutes with Ca2+ [1]: 100% | stoichiometry N [1]: 2 | percent dimer at t = 0 ms [2]: 61%

B1: TG2 R580K mutant (enzyme, human)
chain: MAEELVLERCDLELETNGRDHHTADLCREKLVVRRGQPFWLTLHFEGRNYEASVDSLTFSVVTGPAPSQEAGTKARFPLRDAVEEGDWTATVVDQQDCTLSLQLTTPANAPIGLYRLSLEASTGYQGSSFVLGHFILLFNAWCPADAVYLDSEEERQEYVLTQQGFIYQGSAKFIKNIPWNFGQFEDGILDICLILLDVNPKFLKNAGRDCSRRSSPVYVGRVVSGMVNCNDDQGVLLGRWDNNYGDGVSPMSWIGSVDILRRWKNHGCQRVKYGQCWVFAAVACTVLRCLGIPTRVVTNYNSAHDQNSNLLIEYFRNEFGEIQGDKSEMIWNFHCWVESWMTRPDLQPGYEGWQALDPTPQEKSEGTYCCGPVPVRAIKEGDLSTKYDAPFVFAEVNADVVDWIQQDDGSVHKSINRSLIVGLKISTKSVGRDEREDITHTYKYPEGSSEEREAFTRANHLNKLAEKEETGMAMRIRVGQSMNMGSDFDVFAHITNNTAEEYVCRLLLCARTVSYNGILGPECGTKYLLNLNLEPFSEKSVPLCILYEKYRDCLTESNLIKVRALLVEPVINSYLLAEKDLYLENPEIKIRILGEPKQKRKLVAEVSLQNPLPVALEGCTFTVEGAGLTEEQKTVEIPDPVEAGEEVKVRMDLLPLHMGLHKLVVNFESDKLKAVKGFRNVIIGPA
notes: human transglutaminase 2 (TGM2), UniProt P21980, with the substitution R580K; The methods describe expression and purification only for TG2 in general; also called TG R580K
stoichiometry N [3]: 2

Reference: publication PMC11319651, “Distinct conformational states enable transglutaminase 2 to promote cancer cell survival versus cell death” (Communications Biology, 2024)
